Laboratory results reported in US20150258217A1, “Methods of Synthesizing and Using Peg-Like Fluorochromes” (THE GENERAL HOSPITAL CORPORATION, priority 2012, published 2015).

Legend:
[1] = Quantum yield determination; type: physicochemical; details: for Quantum Yield: Table 3B, IR-783 dipeptides; for Quant. Yield: Table 5, in PBS
Procedure: Quantum yields were determined as described in Demas et al., “Measurement of photoluminescence quantum yields. Review”, Journal of Physical Chemistry 75, 991-1024 (1971), and Shao et al., “Facile Synthesis of Monofunctional Pentamethine Carbocyanine Fluorophores. Dyes and pigments: an international journal 90, 119-122 (2011). For IR-783 a reference quantum yield of 0.043 was used (see Li et al., “Synthesis and characterization of glucosamine-bound near-infrared probes for optical imaging”, Organic letters 8, 3623-3626, 2006); for fluorescein a reference quantum yield was […] (see Sjoback et al., “Absorption and florescence properties of fluorescein”, Spectrohimica Acta Part A 51, L7-L21, 1995). For Cy3 a reference quantum yield of 0.31 was used (Luminprobe Inc). For PN(783)'s, excitation was at 730 nm and emission spectra were recorded from 765 nm to 870 nm in PBS and maximum emission used. For PN(545)'s, excitation was at 515 nm and emission spectra were recorded from 538 nm to 700 nm in PBS and maximum emission used. For PN(497)'s, excitation was at 450 nm and emission spectra were recorded from 475 nm to 620 nm in PBS and maximum emission used. Absorbance of each probe was adjusted less than 0.1. Measurements were made in triplicate and are expressed as mean±SD.

[2] = PN and peptide size (volume, diameter) by FPLC gel filtration (Superdex 200, globular protein standards); type: physicochemical; details: for Molecular Volume FPLC: Table 3B, dipeptides; for Volume FPLC (diameter) / Volume FPLC: Table 5; for Volume FPLC (diameter): converted from globular protein equivalent MW; for Volume FPLC: globular protein equivalent molecular weight
Procedure: DOTA-Lys-Cys(IR783)-NH2 is then dissolved in DMSO, with 2 equivalents of an NHS ester of PEG and 6 equivalents of DIPEA. The reaction was at room temperature for 5 days. Product was purified by reverse phase HPLC separation. Product molecular weight was by matrix-assisted laser desorption ionization time-of-flight mass spectrometry (MALDI-TOF MS), with product molecular volume by size exclusion FPLC using globular protein standards (GE Healthcare life science AKTApurifier 10).
The mass spec of low molecular weights (MW) were obtained by MS-ESI Micromass (Waters) and high MW molecules were determined through MALDI-TOF analyses at the Tufts University Core Facility. RP-HPLC (Varian ProStar detector and delivery modules) employed an eluant A (0.1% TFA/water) and eluant B (0.1% TFA and 9.9% water in acetonitrile). Probe size (volume) was determined by FPLC using an ÄKTA Purifier 10 and Superdex™ 200 10/300GL column (GE Healthcare) with a running buffer of 0.05 M sodium phosphate, 0.15 M NaCl (0.1% Tween, pH 7.2) and flow rate of 0.8 ml/min. Standards (GE Healthcare) were Ferritin, Ribonuclease A, Carbonic Anhydrase, and Conalbumin and Blue Dextran 2000. To obtain probe volumes, Mr (apparent molecular weight based on size exclusion retention) was plotted versus Kav. Kav=(Ve−Vo)/(Vt−Vo), Vt=total volume, Ve=elution volume, Vo=void volume.
The column was calibrated with globular protein standards, and globular protein equivalent molecular weights (in kDa) were obtained (Table 5, column 5). These were converted to PN diameters in nm using the relationship: Radius in nm=[…] where M is the molecular weight of a globular protein expressed in daltons (see Erickson, “Size and Shape of Protein Molecules at the Nanometer Level Determined by Sedimentation, Gel Filtration, and Electron Microscopy”, Biological Procedures Online 2009, 11(1): 32-50). PN's diameters ranged from 3.0 to 11.8 nm (see FIG. 23a). Using PEG's of 5 kDa and 30 kDa, selected for their low polydispersity, PN's were synthesized using IR-783, Cy3 and Fluorescein (see FIG. 22a) and their sizes determined (see FIGS. 23a, 23b, 23c). With the 5 kDa PEG and these three fluorochromes (see the magenta chromatograms in FIGS. 22a, 23b and 23c) PN diameters were 4.3 nm. With the 30 kDa PEG and these three fluorochromes (blue chromatograms, 23a, 23b, 23c), PN diameters were now 10.0 nm. For reference, the diameter of a 67 kDa albumin determined by this method was 5.4 nm.

[3] = Blood half-life from serum fluorescence after tail injection; type: in vivo; details: mouse, IV; single decay constant fit
Procedure: Using these procedures and PEG's of different molecular weights, PEG-like NIR fluorochromes of different molecular weights, volumes and pharmacokinetics were synthesized, with results summarized in Table 3B. Blood half-lives were determined by tail injection into mice and measuring serum fluorescence as a function of time. Data (fluorescence versus time) were fit to a single decay constant equation to yield blood half-lives. Human pharmacokinetics will be far slower than that of mice.

[4] = test system: HT-29, a human colon carcinoma cell line; experiment: PN and peptide binding to cells (non-specific binding, FACS); type: cell-based; details: HT-29 cells, 30 min at 37° C., FACS
Procedure: HT-29, a human colon carcinoma cell line, was from the American Tissue Culture Collection and maintained according to their instructions. Cells were seeded on 24-well plates at 5×10^5 cells/well in culture medium (RPMI 1640 with 10% FBS) the day before the assay. The day of assay, medium was removed, wells rinsed twice with DPBS (+Ca, +Mg), and 100 μl of 2% FBS/DPBS (+Ca, +Mg) added. 100 μL of Nanoprobes (2 μM) in DPBS (+Ca, +Mg) was added to cells and incubated for 30 min at 37° C. (Probe concentrations were determined spectrophotometrically (783 nm, extinction coefficient of 314 471 cm^−1 M^−1 for IR-783; 497 nm, extinction coefficient of 68 000 cm^−1 M^−1 for Fluorescein; 545 nm, extinction coefficient of 150 000 cm^−1 M^−1 for Cy3). Cells were detached by Trypsin/EDTA and assayed for fluorescence by FACS (BD 7 laser LSR2 for nanoprobes with IR-783; BD 3 laser LSR2 for nanoprobes with Fluorescein or Cy3).

[5] = Circulating form of PN's (FPLC of serum after IV injection); type: in vivo, mouse; details: nude mice, 20 nmoles
Procedure: 20 nmoles of PN(783)4.3, PN(783)6.1, or PN(783)10.0 was injected (IV, tail vein) into nude mice (female; 25-30 g; 6-8 weeks old; nu/nu). At the indicated time, 50 μl of blood was collected with microhematocrit capillary tube (Fisher Scientific) from the tail, and transferred to Eppendorf microcentrifuge tube with anticoagulant (EDTA) coating (Fisher Scientific). Tubes were centrifuged (5000 rpm for 5 minutes), and the supernatant was injected to the FPLC, a ÄKTA Purifier 10 with Superdex™ 200 10/300GL column.

[6] = test system: HT-29 tumor; type: in vivo, mouse
Source text: A Kodak FX multispectral imaging system was used (Carestream Molecular Imaging, Rochester, N.Y.). Excitation at multiple wavelengths (620, 650, 690, 710, 720, 730, 750 and 760 nm) with the emission at 830 nm was setup for IR-783 spectrum; Excitation at multiple wavelengths (420, 440, 460, 480, 510, 520, 530, and 540 nm) with the emission at 600 nm was setup for Cy3 spectrum; Excitation at multiple wavelengths (450, 470, 510, 520, 530, 540, 550, 570, and 590 nm) with the emission at 700 nm was setup for mCherry; with manufacturer's software to separate (unmix) the IR-783 spectrum, Cy3 spectrum, or mCherry spectrum from skin autofluorescence and chlorophyll fluorescence from food. X-ray images were taken after fluorescence images. Animals were anesthetized with 2% isoflurane with O2 flow (2 I/min) during imaging.
Female nude mice (25-30 g; 6-8 weeks old; nu/nu) were anesthetized with 2% isoflurane/O2. HT-29 or mCherry-HT-29 cells were detached, pelleted and 200 μl of cell suspension containing 10^6 cells in Matrigel (BD Bioscience) was injected subcutaneously into right and left shoulders. Tumors were allowed to grow 5-7 days before experiments.
The imaging was performed by Triumph II multimodality imaging system (Gamma Medica Ideas, LLC) comprising XSPECT with four CZT (Cadmium Zink Telluride) detectors and X-O CT with CMOS detector. SPECT data of the ^111In-labeled compound was acquired for 60 minutes using 5-pinhole collimators and processed with 3D-OSEM algorithm using 4 subsets and 5 iterations. 3-dimensional CT data was processed with modified Feldkamp software. […] Animals were under isoflurane anesthesia (1.5%) with O2 flow (1.5 l/min) and kept warm during the imaging with a heated animal bed.
150 μl of ^111In-labeled PN(783)10 (400 μCi, ˜2 nmole) were injected to tumor-bearing animals by tail vein (IV). 24 hours or 48 hours later, animals were sacrificed, and tumors, blood, liver, spleen, stomach, kidneys, small intestine, lung, heart, tail, fat, and muscle, were collected. Radioactivity was measured with Perkin Elmer, Wizard2 2480 gamma counter.

[7] = mouse, in vivo
Procedure: At two hours post injection, agent is in the blood and interstitium. By 24 hours post injection, tumors are becoming apparent as agent is being cleared. At 48 hours, labeling is highly tumor selective. […] By surface fluorescence, as with SPECT, labeling is highly tumor selective at 48 hours. Biodistribution as organ radioactivity concentrations FIG. 26(c) and total organ radioactivity FIG. 26(d) were obtained by dissection and ^111In counting at 24 hours and 48 hours post injection. Even at 48 hours post injection some 7.5% of injected dose is in the blood, with less than 5% in liver, even though the diameter of PN(783)10.0 exceeds that of albumin (6.7 nm). Data are means and standard deviations. […] By 72 hours, some 17% of injected dose was retained, approximately half of which was still in the blood based on FIG. 26d.

Substance	Quantum Yield [1]	Quant. Yield [1]	Molecular Volume FPLC [2] [kDa]	Volume FPLC (diameter) [2] [nm]	Volume FPLC [2] [kDa]	Serum half-life [3] [h]	Cell NSB (percent of cells with fluorescence higher than unstained cell) [4] [%]	circulating form after injection (FPLC elution vs pre-injection sample) [5]	tumor concentration ([6]; HT29 tumor, 48 hours post injection, IV) [% ID/gm]	injected dose in the kidney ([6]; mouse, in vivo) [%]	injected dose in the liver ([6]; mouse, in vivo) [%]	Whole body radioactivity half-life [7] [h]	Whole body radioactivity, % of injected dose [7] [%]	^111In-PN(783)10 elimination half-life [7] [h]
(DOTA)Lys(PEG2K)-Cys(IR-783) [PN(783)3.0]	0.15	0.13	11.2	3.0	11.2	0.0233	50	–	–	–	–	–	–	–
(DOTA)Lys(PEG10K)-Cys(IR-783) [PN(783)6.1]	0.17	0.16	100.7	6.1	100.7	–	14	identical for pre-injection samples and for sera from injected mice	–	–	–	–	–	–
(DOTA)Lys(PEG20K)-Cys(IR-783) [PN(783)8.4]	0.17	0.16	262.5	8.4	262.5	0.293	14	–	–	–	–	–	–	–
(^111In-DOTA)Lys(PEG30 kDa)-Cys(IR-783) [^111In-PN(783)10.0]	–	–	–	–	–	–	–	–	7.28±0.93	0.44±0.02	4.71±0.38	7.8	13.75±0.74	7.8
